# Test results reported in patent US20140341881A1 (DERMADIS, published 2014).
# Changes are numbered by the printed parent chain.
# T1: human neutrophil elastase (HNE) (human, UniProt P08246 30-247, limits assumed)
# T1 sequence (looked up): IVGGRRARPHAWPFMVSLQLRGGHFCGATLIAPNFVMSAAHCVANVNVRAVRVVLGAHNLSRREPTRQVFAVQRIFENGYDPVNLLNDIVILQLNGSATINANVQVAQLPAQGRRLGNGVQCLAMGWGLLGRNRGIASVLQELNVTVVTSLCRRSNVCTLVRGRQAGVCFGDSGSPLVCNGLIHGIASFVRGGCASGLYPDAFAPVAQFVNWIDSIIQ
# T2: human kallikrein 14 (hK14) (human, UniProt Q9P0G3 25-251, limits assumed)
# T2 sequence (looked up): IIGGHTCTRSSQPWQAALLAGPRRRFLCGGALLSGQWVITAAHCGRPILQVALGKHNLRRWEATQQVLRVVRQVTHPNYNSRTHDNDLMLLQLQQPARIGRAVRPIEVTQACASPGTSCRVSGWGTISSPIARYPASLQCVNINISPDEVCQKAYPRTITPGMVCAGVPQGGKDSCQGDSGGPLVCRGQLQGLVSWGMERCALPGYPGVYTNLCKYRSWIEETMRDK
# T3: human kallikrein 5 (hK5) (human, UniProt Q9Y337 67-293, limits assumed)
# T3 sequence (looked up): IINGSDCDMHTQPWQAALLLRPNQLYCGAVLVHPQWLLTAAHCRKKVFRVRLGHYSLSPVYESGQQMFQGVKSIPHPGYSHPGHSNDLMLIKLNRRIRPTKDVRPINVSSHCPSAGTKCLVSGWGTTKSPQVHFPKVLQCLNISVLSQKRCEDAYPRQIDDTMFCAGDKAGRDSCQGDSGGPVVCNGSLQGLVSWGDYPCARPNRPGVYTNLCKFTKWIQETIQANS
# T4: human kallikrein 8 (hK8) (human, UniProt O60259 33-260)
# T4 sequence (looked up): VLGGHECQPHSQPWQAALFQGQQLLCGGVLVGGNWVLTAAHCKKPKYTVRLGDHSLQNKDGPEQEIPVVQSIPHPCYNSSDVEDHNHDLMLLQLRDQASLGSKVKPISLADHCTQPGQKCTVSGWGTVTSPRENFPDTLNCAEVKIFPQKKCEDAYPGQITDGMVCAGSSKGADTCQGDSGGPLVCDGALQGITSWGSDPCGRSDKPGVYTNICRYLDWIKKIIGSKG
# B1: AATC11 (other, human)
# chain: HHHHHHEDPQGDAAQKTDTSHHDQDHPTFNKITPNLAEFAFSLYRQLAHQSNSTNIFFSPVSIATAFAMLSLGTKADTHDEILEGLNFNLTEIPEAQIHEGFQELLRTLNQPDSQLQLTTGNGLFLSEGLKLVDKFLEDVKKLYHSEAFTVNFGDTEEAKKQINDYVEKGTQGKIVDLVKELDRDTVFALVNYIFFKGKWERPFEVKDTEEEDFHVDQVTTVKVPMMKRLGMFNIQHCKKLSSWVLLMKYLGNATAIFFLPDEGKLQHLENELTHDIITKFLENEDRRSASLHLPKLSITGTYDLKSVLGQLGITKVFSNGADLSGVTEEAPLKLSKAVHKAVLTIDEKGTEAAGAMFLEAIPRQTNPEVKFNKPFVFLMIEQNTKSPLFMGKVVNPTQK
# notes: mature
# B2: AATG1g (other, human)
# chain: B1 chain with A361G, I362S, P363L, Q365G, T366I, N367P
# notes: mature
# B3: AATG1 (other, human)
# chain: B1 chain with A361G, I362S, P363L, Q365S, T366I, N367P
# notes: mature
# B4: ACTC11 (other)
# chain: MRGSHHHHHHSRHPNSPLDEENLTQENQDRGTHVDLGLASANVDFAFSLYKQLVLKAPDKNVIFSPLSISTALAFLSLGAHNTTLTEILKGLKFNLTETSEAEIHQSFQHLLRTLNQSSDELQLSMGNAMFVKEQLSLLDRFTEDAKRLYGSEAFATDFQDSAAAKKLINDYVKNGTRGKITDLIKDLDSQTMMVLVNYIFFKAKWEMPFDPQDTHQSRFYLSKKKWVMVPMMSLHHLTIPYFRDEELSCTVVELKYTGNASALFILPDQDKMEEVEAMLLPETLKRWRDSLEFREIGELYLPKFSISRDYNLNDILLQLGIEEAFTSKADLSGITGARNLAVSQVVHKAVLDVFEEGTEASAATAVKITLRQTNVETRTIVRFNRPFLMIIVPTDTQNIFFMSKVTNPKQA
# notes: also called rACTC11
# B5: ACTC11D (other)
# chain: B4 chain with V376D
# notes: also called rACTC11D
# B6: ACTF11 (other)
# chain: B4 chain with I369Q, T370R, Q373D, T374A, N375L
# B7: ACTG1g (other)
# chain: B4 chain with I369G, T370S, Q373G, T374A, N375L
# B8: ACTE5 (other)
# chain: B4 chain with T370N, L371Q, Q373S, T374S, N375L
# B9: ACTC11g (other)
# chain: B4 chain with L371G
# B10: ACTG1 (other)
# chain: B4 chain with I369G, T370S, Q373S, T374A, N375L
# B11: ACTG1v (other)
# chain: B4 chain with K368V, I369G, T370S, Q373S, T374A, N375L
# B12: AATC11g (other)
# chain: MRGSHHHHHHGSDDPQGDAAQKTDTSHHDQDHPTFNKITPNLAEFAFSLYRQLAHQSNSTNIFFSPVSIATAFAMLSLGTKADTHDEILEGLNFNLTEIPEAQIHEGFQELLRTLNQPDSQLQLTTGNGLFLSEGLKLVDKFLEDVKKLYHSEAFTVNFGDTEEAKKQINDYVEKGTQGKIVDLVKELDRDTVFALVNYIFFKGKWERPFEVKDTEEEDFHVDQATTVKVPMMKRLGMFNIQHCKKLSSWVLLMKYLGNATAIFFLPDEGKLQHLENELTHDIITKFLENEDRRSASLHLPKLSITGTYDLKSVLGQLGITKVFSNGADLSGVTEEAPLKLSKAVHKAVLTIDEKGTEAAGAMFLEAIGRQTNPEVKFNKPFVFLMIEQNTKSPLFMGKVVNPTQK
# B13: AATF3 (other, human)
# chain: B1 chain with I362P, P363D, Q365H, T366M, N367P
# notes: mature
# B14: AATE5 (other, human)
# chain: B1 chain with I362N, P363Q, Q365S, T366S, N367P
# notes: mature
# Biological target: human chymotrypsin (Chtr) (human, UniProt P17538 19-263)
# Test: cell-based or functional assay
# Chain of human chymotrypsin (Chtr) (P17538 19-263): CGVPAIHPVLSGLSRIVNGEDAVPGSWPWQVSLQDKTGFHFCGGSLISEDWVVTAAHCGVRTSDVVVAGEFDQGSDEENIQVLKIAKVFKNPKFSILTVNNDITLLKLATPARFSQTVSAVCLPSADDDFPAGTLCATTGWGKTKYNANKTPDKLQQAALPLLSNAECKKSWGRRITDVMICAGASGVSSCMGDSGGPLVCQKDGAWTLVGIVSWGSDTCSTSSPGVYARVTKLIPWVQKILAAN
row,% Inhibition,Binder
1,18%,B1
2,17%,B2
3,27%,B3
4,84%,B4
5,83%,B5

# Biological target: human plasma kallikrein (PK) (human, UniProt P03952 20-638)
# Test: cell-based or functional assay
# Chain of human plasma kallikrein (PK) (P03952 20-638 limits assumed): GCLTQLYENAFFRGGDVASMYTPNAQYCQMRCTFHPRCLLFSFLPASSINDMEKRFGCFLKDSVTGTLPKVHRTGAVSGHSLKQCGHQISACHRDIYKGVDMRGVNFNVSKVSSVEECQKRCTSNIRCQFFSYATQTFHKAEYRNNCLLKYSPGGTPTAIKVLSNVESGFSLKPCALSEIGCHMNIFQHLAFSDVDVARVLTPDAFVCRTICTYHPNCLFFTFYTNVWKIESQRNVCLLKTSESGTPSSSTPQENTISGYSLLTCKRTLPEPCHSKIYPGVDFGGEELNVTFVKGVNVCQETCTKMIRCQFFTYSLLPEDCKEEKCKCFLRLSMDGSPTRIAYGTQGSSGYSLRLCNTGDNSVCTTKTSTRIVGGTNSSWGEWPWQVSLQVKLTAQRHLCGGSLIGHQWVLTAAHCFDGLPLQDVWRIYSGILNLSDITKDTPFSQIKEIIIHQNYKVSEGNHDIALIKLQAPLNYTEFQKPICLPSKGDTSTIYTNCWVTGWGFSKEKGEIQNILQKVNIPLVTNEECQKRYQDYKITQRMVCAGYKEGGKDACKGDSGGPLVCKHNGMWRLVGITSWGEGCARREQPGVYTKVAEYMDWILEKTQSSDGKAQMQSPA
row,% Inhibition,Binder
1,8%,B1
2,100%,B2
3,100%,B3
4,0%,B4
5,0%,B5

# Biological target: urokinase plasminogen activator (uPA) (UniProt P00749 21-431, limits assumed)
# Test: cell-based or functional assay
row,% Inhibition,Binder
1,0%,B1
2,0%,B2
3,17%,B3
4,0%,B4
5,0%,B5

# Biological target: T1, human neutrophil elastase (HNE)
# Test: cell-based or functional assay
row,% Inhibition,Binder
1,0%,B1
2,0%,B2
3,0%,B3
4,0%,B4
5,0%,B5

# Biological target: thrombin
# Test: cell-based or functional assay
row,% Inhibition,Binder
1,100%,B1
2,0%,B2
3,51%,B3
4,0%,B4
5,0%,B5

# Biological target: T2, human kallikrein 14 (hK14)
# Test: cell-based or functional assay
row,% Inhibition,Binder
1,100%,B1
2,100%,B2
3,100%,B3
4,100%,B4
5,100%,B5

# Biological target: human kallikrein 2 (hK2) (human, UniProt P20151 25-261)
# Test: cell-based or functional assay
row,% Inhibition,Binder
1,25%,B6
2,0%,B7
3,0%,B8
4,25%,B9
5,15%,B10

# Biological target: human kallikrein 4 (hK4) (human, UniProt Q9Y5K2 31-254, limits assumed)
# Test: cell-based or functional assay
# Chain of human kallikrein 4 (hK4) (Q9Y5K2 31-254 limits assumed): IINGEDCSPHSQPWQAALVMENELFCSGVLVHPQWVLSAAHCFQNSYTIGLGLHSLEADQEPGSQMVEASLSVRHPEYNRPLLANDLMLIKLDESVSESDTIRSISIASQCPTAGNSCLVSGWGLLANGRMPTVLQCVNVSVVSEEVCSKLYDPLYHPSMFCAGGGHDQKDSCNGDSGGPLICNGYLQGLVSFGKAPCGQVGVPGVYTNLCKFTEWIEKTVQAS
row,% Inhibition,Binder
1,45%,B6
2,0%,B7
3,75%,B8
4,0%,B9
5,0%,B10

# Biological target: T3, human kallikrein 5 (hK5)
# Test: cell-based or functional assay
row,% Inhibition,Binder
1,15%,B6
2,10%,B7
3,10%,B8
4,5%,B9
5,50%,B10

# Biological target: human kallikrein 6 (hK6) (human, UniProt Q92876 22-244)
# Test: cell-based or functional assay
row,% Inhibition,Binder
1,0%,B6
2,0%,B7
3,0%,B8
4,0%,B9
5,20%,B10

# Biological target: T4, human kallikrein 8 (hK8)
# Test: cell-based or functional assay
row,% Inhibition,Binder
1,0%,B6
2,0%,B7
3,10%,B8
4,0%,B9
5,0%,B10

# Biological target: T2, human kallikrein 14 (hK14)
# Test: progress curve; * [I0]/[E0] < 5 * SI
# Protocol: The association rate constants for interactions of hK14, with different inhibitors were determined under pseudo-first order conditions using the progress curve method (Morrison and Walsh, 1988). Under these conditions, a fixed amount of enzyme (2 nM) was mixed with different concentrations of inhibitor (0-80 nM) and an excess of substrate (20 μM). Reactions were performed in reaction buffer (50 mM Tris pH 7.5, 150 mM NaCl, 0.05% Triton X-100, 0.01% BSA) at 37° C. for 45 min and the rate of product formation was measured using a FLₓ800 fluorescence 96-well microplate reader (Biotek, USA) Inhibition is considered to be irreversible over the course of reaction and the progression of enzyme activity is expressed as product formation (P), beginning at a rate (vz) and is inhibited over time (t) at a first-order rate (kobs), where the rate constant is only dependent on the inhibitor concentration.
row,kon,Binder
1,65000 M⁻¹ s⁻¹,B4
2,7600 M⁻¹ s⁻¹,B9
3,74000 M⁻¹ s⁻¹,B5
4,22000 M⁻¹ s⁻¹,B11
5,3200 M⁻¹ s⁻¹,B10
6,42000 M⁻¹ s⁻¹,B12

# Biological target: T2, human kallikrein 14 (hK14)
# Test: residual hK14 activity against [I0]/[E0]
# Protocol: SI values of rAAT, rACT, and their variants were determined with hK14 incubating the protease with varying concentrations of inhibitor. After an incubation of 4 hours at 37° C. in reaction buffer (50 mM Tris, pH 7.5, 150 mM NaCl, 0.05% Triton X-100, 0.01% BSA), the residual activity was detected by the addition of fluorescent substrate (Boc-Val-Pro-Arg-AMC). Fluorescence was measured with excitation at 340 nm (±15) and emission at 485 nm (±10) in black 96 well plates using a microplate fluorescence reader FLₓ800 (Bio-Tek Instruments, Inc.). The SI value corresponds to the abscissa intercept of the linear regression analysis of fractional velocity (velocity of inhibited enzyme reaction (vi)/velocity of uninhibited enzyme reaction (v₀)) vs. the molar ratio of the inhibitor to enzyme ([I₀]/[E₀]).
row,SI (stoichiometry of inhibition),Binder
1,2.8,B1
2,2.3,B2
3,11.7,B13
4,3.6,B3
5,10,B14
6,4.8,B4
7,13.8,B9
8,2.8,B5
9,11.7,B11
10,13.3,B10
11,9,B12
